This assay has as its target 重组NDM-1蛋白 (新德里金属β-内酰胺酶, 肺炎克雷伯菌) (肺炎克雷伯菌 (Klebsiella pneumoniae)) (UniProt C7C422). Description: indirect ELISA, NDM-1 coated at 100 ng/well, purified antibody diluted 1:10000 to 1:2560000, positive if the ratio to the negative control is >2.1. A general note: In an ELISA, binding on a coated surface is turned into a signal by an enzyme label.
UniProt C7C422, sequence (C7C422 29-270 limits assumed): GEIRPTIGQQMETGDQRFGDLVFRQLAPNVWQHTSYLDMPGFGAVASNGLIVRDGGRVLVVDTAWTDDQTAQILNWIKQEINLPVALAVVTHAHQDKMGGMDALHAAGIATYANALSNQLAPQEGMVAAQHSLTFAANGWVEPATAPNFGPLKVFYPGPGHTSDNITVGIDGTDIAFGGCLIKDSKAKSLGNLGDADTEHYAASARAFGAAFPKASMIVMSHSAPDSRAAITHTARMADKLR

B1: 单克隆抗体7C10 (antibody, V domains shown)
VH: QVQLQQPGAELVRPGASVRLSCKASGYTFTNYWMNWVKQRPGQGLEWIGSINPSDGYTKYNQKFKDKATLTVDKSSSTAYLQLSSPTSEDSAVYYCTRKKVNYDYAMDYWGQGTSVTVSS
VL: DIVMSQSPSSLAVSVGEKVTMSCKSSQSLLYSSNQKNYLAWYQQKPGQSPKLLIYWASTRESGVPDRFTGSGSGTDFTLTISSVKAEDLAFYYCHQYYSYPYTFGGGTKLERK
Take B1: the 效价 (ELISA titer, highest positive dilution) (fold dilution) was 600000.

B2: 单克隆抗体5B9 (antibody, V domains shown)
VH: EVQLVESGGGLVKPGGSLKLSCAASGFTFSSYAMSWVRQSPEKRLEWVADISSGGSYTYYPDTVTGRFTISRDNAKNTLYLEMSSLGSEDTAMYYCAREYGGGFDYWGQGTTLTVSS
VL: DIQMTQSPASLSASVGETVTITCRASGNIHNYLAWYQQKQGKSPQLLVYNAKTLADGVPSRFSGSGSGTQYSLKINSLQPEDFGSYYCQHFWSIPRTFGGGTKLEIK
With B2, the 效价 (ELISA titer, highest positive dilution) (fold dilution) came out at 1e+06.

B3: 单克隆抗体5G6 (antibody, V domains shown)
VH: EVQLVESGGGLVKPGGSLKLSCAASGFTFSNYAMSWVRQSPEKRLEWVADISSGGSYTYYPDTVTGRFTISRDNAKNTLYLEMTSLRSEDTAMYYCAREYGGGFDYWGQGTTLTVSS
VL: DIQMTQSPASLSASVGETVTITCRASGNIHNYLAWYQQKQGKSPQLLVYNAKTLADGVPSRFSGSGSGTQYSLKINSLQPEDFGNYYCQHFWSIPRTFGGGTKLEIK
For B3, the 效价 (ELISA titer, highest positive dilution) (fold dilution) came out at 1e+06.

These data come from patent CN113150137A.
